Blank lines part the entries; values can stand above or below the molecule they belong to.
Assays:
[1] = biological target: FBA6 protein expressed and purified from E. coli (Arabidopsis) (UniProt Q9SJQ9); test: microscale thermophoresis (MST), FBA6 purified from E. coli
[2] = biological target: TIA1 protein (recombinant, purchased from Origene) (human) (UniProt P31483); test: MST self-assembly, labelled TIA1 titrated with non-labeled TIA1, in the presence of 500 µM 2′,3′-cAMP
[3] = biological target: TIA1 protein (recombinant, purchased from Origene) (human) (UniProt P31483); test: MST self-assembly, labelled TIA1 titrated with non-labeled TIA1, without 2′,3′-cAMP
[4] = biological target: the molecule itself; test: MST self-assembly, labelled Rbp47b titrated with non-labeled Rbp47b, without 2′,3′-cAMP
Description: (§1) MST measurements were performed using a Monolith NT.115 instrument (NanoTemper, München, Germany). Capillaries were loaded into the instrument as sets of 13-16 point ligand titrations. […] Excitation was optimized by varying the LED power to yield emission intensities above 200 AU, corresponding to 10-50 nM labeled protein. Monolith power was set to 60%. Ligands [2′,3′-cAMP (Sigma A9376)] and [3′,5′-cAMP (Sigma A6885)] were dissolved in PBS. 0.5% Tween and premium coated capillaries were used to prevent sticking. […] MO Affinity Analysis software was used to analyze (Kd calculation) and visualize the data. Presented data are from 2-3 technical replicates.

[5] = biological target: the molecule itself; test: MST self-assembly, labelled Rbp47b titrated with non-labeled Rbp47b, in the presence of 50 µM 2′,3′-cAMP
Description: as §1

FBA6 protein expressed and purified from E. coli (Arabidopsis), sequence (Q9SJQ9 whole entry): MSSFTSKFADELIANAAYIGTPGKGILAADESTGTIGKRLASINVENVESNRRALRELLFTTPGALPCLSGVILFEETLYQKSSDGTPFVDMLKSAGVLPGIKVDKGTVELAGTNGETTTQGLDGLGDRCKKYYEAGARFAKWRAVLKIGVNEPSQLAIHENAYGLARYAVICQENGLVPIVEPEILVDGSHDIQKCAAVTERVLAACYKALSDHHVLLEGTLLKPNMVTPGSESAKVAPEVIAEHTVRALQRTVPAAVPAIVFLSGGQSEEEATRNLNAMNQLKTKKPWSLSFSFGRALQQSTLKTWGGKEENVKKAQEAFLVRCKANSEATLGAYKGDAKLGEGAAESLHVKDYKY

Kd [1]: 200 nM
Molecule: L-Gly-L-Pro (peptide)

Molecule: TIA1 protein (recombinant, purchased from Origene) (from UniProt P31483 1-386)
Kd [2]: 20.6 nM
Kd [3]: 36.3 nM

B1: His6-Rbp47b (other, Arabidopsis)
chain: HHHHHHMQTTNGSDSTLATSGATPPNQQTPPPPQQWQQQQQQQQQWMAAMQYPPAAAMMMMQQQQMLMYPHQYVPYNQGPYQQHHPQLHQYGSYQQHQHQQHKAIDRGSGDDVKTLWVGDLLHWMDETYLHSCFSHTGEVSSVKVIRNKLTSQSEGYGFVEFLSRAAAEEVLQNYSGSVMPNSDQPFRINWASFSTGEKRAVENGPDLSVFVGDLSPDVTDVLLHETFSDRYPSVKSAKVVIDSNTGRSKGYGFVRFGDENERSRALTEMNGAYCSNRQMRVGIATPKRAIANQQQHSSQAVILAGGHGSNGSMGYGSQSDGESTNATIFVGGIDPDVIDEDLRQPFSQFGEVVSVKIPVGKGCGFVQFADRKSAEDAIESLNGTVIGKNTVRLSWGRSPNKQWRGDSGQQWNGGYSRGHGYNNGGGYANHHDSNNYHGEN
modifications: the labelled partner carries RED-NHS (amine reactive) dye; the titrated partner is non-labeled
notes: Cloned as His6-Rbp47b-GFP in E. coli; The fraction that had spontaneously lost GFP (His6-Rbp47b) was used for MST; In the self-assembly assay labelled Rbp47b was titrated with non-labeled Rbp47b; also called Rb47b
Kd [4]: 128 nM
Kd [5]: 8.9 nM

— US20190361012A1 (published 2019)
